In patent US20260098102A1 (NATIONAL UNIVERSITY CORPORATION KOBE UNIVERSITY, published 2026):

Key:
human SIRPA_V7 = target: T1, human SIRPA_V7 (human, UniProt P78324 31-504); test: cell-based ELISA on 293α cells expressing FLAG-tagged SIRPA_V7; Abs 490 normalized to FLAG tag [iii]
T1 construct: FLAG-tagged (pFLAG V5-DEST), on 293α cells; also called human SIRPA Variant 7
Description: (§1) The 293a cells, described in Example 1)-6, were prepared at 5× 10⁵ cells/mL in a 10% FBS-containing DMEM medium. pFLAG V5-DEST-SIRPA_V1-V10, pFLAG V5-DEST-monkey SIRPA, pFLAG V5-DEST-mouse SIRPA, or pFLAG V5-DEST was introduced into the cells using Lipofectamine LTX (Invitrogen), and 100 μL each was aliquoted to a 96-well plate (Corning Incorporated) and cultured overnight in a 10% FBS-containing DMEM medium at 37° C. under a 5% CO₂ condition. The obtained introduced cells were used for cell-based ELISA in a state that they adhered. After the culture supernatant was removed, 50 μL per well of hD13_HIL3, hD13_HIL4h, hD13_H2L2, hD13_H2L3, or cD13 prepared in Examples 6 and 7 or a control antibody was added to each of various SIRPA genes-introduced cells at a final concentration of 0 to 10,000 ng/ml, and the mixture was allowed to stand at 4° C. for one hour. Thereafter, binding to human SIRPA was evaluated in the same manner as in Example 5-1.

human SIRPA_V3 = target: T2, human SIRPA_V3 (human, UniProt P78324 31-504); test: cell-based ELISA on 293α cells expressing FLAG-tagged SIRPA_V3; Abs 490 normalized to FLAG tag [iii]
T2 construct: FLAG-tagged (pFLAG V5-DEST), on 293α cells; also called human SIRPA Variant 3
T2 sequence (P78324 other isoform, or with tags, fused parts or gaps limits assumed): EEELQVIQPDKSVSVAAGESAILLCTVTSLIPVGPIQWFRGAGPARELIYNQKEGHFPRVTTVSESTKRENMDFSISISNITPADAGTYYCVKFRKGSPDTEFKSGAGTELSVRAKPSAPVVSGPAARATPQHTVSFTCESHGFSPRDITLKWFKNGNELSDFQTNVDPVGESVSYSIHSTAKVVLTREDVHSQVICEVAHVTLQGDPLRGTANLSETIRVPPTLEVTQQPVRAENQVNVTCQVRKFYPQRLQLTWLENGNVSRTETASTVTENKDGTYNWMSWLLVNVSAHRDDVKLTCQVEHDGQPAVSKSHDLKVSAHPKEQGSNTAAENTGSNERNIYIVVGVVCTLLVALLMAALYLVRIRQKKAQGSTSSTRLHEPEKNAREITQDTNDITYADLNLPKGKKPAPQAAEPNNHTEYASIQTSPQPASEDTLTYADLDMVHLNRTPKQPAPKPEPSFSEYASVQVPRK
Description: as §1

human SIRPA_V1 protein = target: T3, human SIRPA_V1 protein (human, UniProt P78324 31-504); test: cell-based ELISA on 293α cells expressing FLAG-tagged SIRPA_V1; Abs 490 normalized to FLAG tag
T3 construct: Expressed on 293α cells from pcDNA3.2 V5-DEST or pFLAG V5-DEST (FLAG-tagged) vectors; also called human SIRPA Variant 1; hSIRPA V1
T3 sequence (P78324 31-504 limits assumed): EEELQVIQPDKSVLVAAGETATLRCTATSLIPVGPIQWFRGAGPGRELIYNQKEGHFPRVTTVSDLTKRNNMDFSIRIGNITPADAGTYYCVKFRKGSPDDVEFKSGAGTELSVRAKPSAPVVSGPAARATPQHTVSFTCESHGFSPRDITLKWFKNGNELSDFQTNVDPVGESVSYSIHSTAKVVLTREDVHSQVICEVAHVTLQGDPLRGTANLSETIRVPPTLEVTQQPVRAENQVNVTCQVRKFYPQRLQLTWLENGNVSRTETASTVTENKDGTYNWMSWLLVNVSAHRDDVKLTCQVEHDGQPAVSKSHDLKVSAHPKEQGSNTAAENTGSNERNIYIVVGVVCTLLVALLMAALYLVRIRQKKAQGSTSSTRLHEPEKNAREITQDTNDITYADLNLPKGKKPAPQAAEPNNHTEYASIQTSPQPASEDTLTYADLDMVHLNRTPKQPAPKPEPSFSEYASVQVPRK
Description: The 293α cells [described in Example 1)-6] were prepared in a 10% FBS-containing DMEM medium to 5×10⁵ cells/mL. pFLAG V5-DEST-SIRPA_V1, pFLAG V5-DEST-SIRPA_V2, or pFLAG V5-DEST was introduced into the cells using Lipofectamine LTX (Invitrogen), followed by addition of 100 μL per well to a 96-well plate (Corning Incorporated), and cells were cultured overnight in the 10% FBS-containing DMEM medium at 37° C. under a 5% CO₂ condition. The obtained introduced cells were used for cell-based ELISA in a state that they adhered to each other. After the culture supernatant was removed, 50 μL per well of the cD13 (IgG2 and IgG4pf), cF44 (IgG1, IgG2, IgG4p, and IgG4pf), and cF63 (IgG2 and IgG4pf) antibodies prepared in Examples 3 and 4 were added to each of pFLAG V5-DEST-SIRPA_V1, pFLAG V5-DEST-SIRPA_V2, or pFLAG V5-DEST-introduced cells at final concentrations of 0 to 10,000 ng/mL, and the mixture was allowed to stand at 4° C. for one hour. Further, 50 μL per well of anti-FLAG M2 antibody (SIGMA) diluted with 5% FBS-containing PBS to a final concentration of 10,000 ng/mL was added to a well for detecting expression of each SIRPA construct, and the mixture was allowed to stand at 4° C. for one hour. The cells in the well were washed once with 5% FBS-containing PBS, followed by addition of Peroxidase AffiniPure F(ab′)₂ Fragment Goat Anti-Human IgG, Fcγ Fragment Specific (Jackson ImmunoResearch) diluted 1000-fold with 5% FBS-containing PBS, and the mixture was allowed to stand at 4° C. for one hour. The cells in the well were washed five times with 5% FBS-containing PBS, followed by addition of 100 μL per well of an OPD coloration solution [o-phenylenediamine dihydrochloride (Wako Pure Chemical Industries, Ltd.) and H₂O₂ were dissolved in an OPD solution (0.05 M trisodium citrate, 0.1 M disodium hydrogen phosphate dodecahydrate, pH 4.5) at 0.4 mg/mL and 0.6% (v/v), respectively]. A coloration reaction was performed with stirring occasionally, 100 μL per well of 1 M HCl was added to terminate the coloration reaction, and then absorbance at 490 nm was measured with a plate reader ARVO (PerkinElmer Inc.). Binding of the human chimeric anti-human SIRPA antibodies to each construct was standardized by expression of the FLAG tag.

SIRPA_V1_IgV = target: T4, SIRPA_V1_IgV (human, UniProt P78324 31-149); test: SPR Biacore T200, antibody captured, SIRPA_V1_IgV as analyte, 1:1 model
T4 construct: Secreted recombinant protein from FreeStyle 293F cells
T4 sequence (P78324 other isoform, or with tags, fused parts or gaps limits assumed): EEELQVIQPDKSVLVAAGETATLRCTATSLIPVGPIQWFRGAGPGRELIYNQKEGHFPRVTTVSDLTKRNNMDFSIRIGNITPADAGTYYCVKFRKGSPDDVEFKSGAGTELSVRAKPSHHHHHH
Description: The dissociation constants of the cD13, cF44, and cF63 prepared in Example 4 against the human SIRPA_V1_IgV prepared in Example 1 were determined by a capture method comprising capturing a human chimeric antibody as a ligand and measuring an antigen as an analyte, using Biacore T200 (GE Healthcare Bioscience Corp.). HBS-EP+ (GE Healthcare Bioscience Corp.) was used as a running buffer, and CM5 (GE Healthcare Bioscience Corp.) was used as a sensor chip. In an amount of 1 μg/mL human chimeric antibody was added onto a chip at a rate of 10 μL/min for 60 seconds, a serially diluted solution of human SIRPA protein as an antigen (0.5 to 8 μg/mL) was added at a flow rate of 30 μL/min for 120 seconds, and the dissociation phase continued to be monitored for 600 seconds. As a regenerant, 3 M magnesium chloride (GE Healthcare Bioscience Corp.) was added at a flow rate of 20 μL/min for 30 seconds. For data analysis, the binding rate constant (ka), dissociation rate constant (kd), and dissociation constant (KD; KD=kd/ka) were calculated using a 1:1 binding model.

T1 sequence (P78324 other isoform, or with tags, fused parts or gaps limits assumed): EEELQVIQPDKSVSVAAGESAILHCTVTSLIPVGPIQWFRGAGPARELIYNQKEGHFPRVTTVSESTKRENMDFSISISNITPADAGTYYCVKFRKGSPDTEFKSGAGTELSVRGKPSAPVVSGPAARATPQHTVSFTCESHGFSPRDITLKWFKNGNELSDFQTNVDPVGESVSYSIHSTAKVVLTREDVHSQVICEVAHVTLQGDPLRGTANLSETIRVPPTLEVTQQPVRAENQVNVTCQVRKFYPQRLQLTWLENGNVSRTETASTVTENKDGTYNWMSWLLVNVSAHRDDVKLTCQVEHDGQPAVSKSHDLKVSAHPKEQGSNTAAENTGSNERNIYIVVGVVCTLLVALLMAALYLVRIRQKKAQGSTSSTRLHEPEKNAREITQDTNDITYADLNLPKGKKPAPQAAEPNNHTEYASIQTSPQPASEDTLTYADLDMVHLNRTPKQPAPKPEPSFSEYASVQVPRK

Binder	EC50 (read off the curve) (human SIRPA_V7) [µg/mL]	EC50 (read off the curve) (human SIRPA_V3) [µg/mL]	EC50 (read off the curve) (human SIRPA_V1 protein) [µg/mL]	Kd (SIRPA_V1_IgV) [pM]
humanized anti-SIRPA antibody hD13_H1L3 (antibody, human IgG4 S228P, kappa, F234A L235A, V domains shown, hH1 heavy chain (IgG4proFALA) and hL3 kappa light chain; also called hD13_HIL3; HIL3 antibody) VH: QVQLVESGGGVVQPGRSLRLSCAASGFTFSDYGMIWVRQAPGKGLEWVASISSSSSYIYYADSVKGRFTISRDNSKNRLYLQMNSLRAEDTAVYYCARRYYGFNYPFDYWGQGTMVTVSS VL: DTQLTQSPSSLSASVGQRVTITCGASKSVRTYMHWYQQKPGKQPKLLIYSASNLEAGVPSRFSGSGSGTDFTLTISSLQPEDFATYYCQQSNEPPYTFGQGTKLEIKR	~0.04	~0.03	–	–
humanized anti-SIRPA antibody hD13_H1L4 (antibody, human IgG4 S228P, kappa, F234A L235A, V domains shown, hH1 heavy chain (IgG4proFALA) and hL4 kappa light chain; also called hD13_HIL4; hD13_HIL4h) VH: QVQLVESGGGVVQPGRSLRLSCAASGFTFSDYGMIWVRQAPGKGLEWVASISSSSSYIYYADSVKGRFTISRDNSKNRLYLQMNSLRAEDTAVYYCARRYYGFNYPFDYWGQGTMVTVSS VL: DTVLTQSPDSLAVSLGQRATINCGASKSVRTYMHWYQQKPGQQPKLLIYSASNLEAGVPSRFSGSGSGTDFTLTISSLQAEDVAVYYCQQSNEPPYTFGQGTKVEIKR	~0.04	~0.03	–	–
human chimeric anti-SIRPA antibody cD13 (antibody, human IgG4 S228P, kappa, F234A L235A, V domains shown, Human IgG4proFALA heavy chain, human kappa light chain; also called cD13 (IgG4pf); human chimeric antibody D13) VH: EVQLVESGGGLVQPGRSLKLSCLASGFTFSDYGMIWVRQAPGKGLEWVASISSSSSYIYYADTVKGRFTISRENAKNTLFLHMTSLRSEDTALYYCARRYYGFNYPFDYWGQGVMVTVSS VL: DTVLTQSPALAVSLGQRVTISCGASKSVRTYMHWYQQKSGQQPKLLIYSASNLEAGVPSRFSGSGSGTDFTLTIDPVEADDIANYYCQQSNEPPYTFGAGTKLELKR	~0.04	~0.04	~0.08	81.1

Second part, the binder after the results:

EC50 (read off the curve) (human SIRPA_V7) [µg/mL]	EC50 (read off the curve) (human SIRPA_V3) [µg/mL]	EC50 (read off the curve) (human SIRPA_V1 protein) [µg/mL]	Kd (SIRPA_V1_IgV) [pM]	Binder
~0.04	~0.04	–	–	humanized anti-SIRPA antibody hD13_H2L2 (antibody, human IgG4 S228P, kappa, F234A L235A, V domains shown, hH2 heavy chain (IgG4proFALA) and hL2 kappa light chain; also called H2L2 antibody) VH: EVQLVESGGGVVQPGRSLRLSCAASGFTFSDYGMIWVRQAPGKGLEWVASISSSSSYIYYADSVKGRFTISRDNSKNTLYLQMNSLRAEDTAVYYCARRYYGFNYPFDYWGQGTMVTVSS VL: AIQLTQSPSSLSASVGQRVTITCGASKSVRTYMHWYQQKPGKAPKLLIYSASNLEAGVPSRFSGSGSGTDFTLTISSLQPEDFATYYCQQSNEPPYTFGQGTKLEIKR
~0.04	~0.04	–	–	humanized anti-SIRPA antibody hD13_H2L3 (antibody, human IgG4 S228P, kappa, F234A L235A, V domains shown, hH2 heavy chain (IgG4proFALA) and hL3 kappa light chain; also called H2L3 antibody) VH: EVQLVESGGGVVQPGRSLRLSCAASGFTFSDYGMIWVRQAPGKGLEWVASISSSSSYIYYADSVKGRFTISRDNSKNTLYLQMNSLRAEDTAVYYCARRYYGFNYPFDYWGQGTMVTVSS VL: DTQLTQSPSSLSASVGQRVTITCGASKSVRTYMHWYQQKPGKQPKLLIYSASNLEAGVPSRFSGSGSGTDFTLTISSLQPEDFATYYCQQSNEPPYTFGQGTKLEIKR
